# Test results from patent publication US20060024313A1, “Agents that disrupt dimer formation in DPP-IV family of prolyl dipeptidases” (priority 2004, published 2006).
# Positions count from the first letter of the chain named. Names and notes keep the numbering of the source. Values joined by “and” are separate entries in the source; they are usually repeats but may differ in a detail not shown here. Equal entries are not always repeated. “Also recorded” adds a separate entry of the source. Marks after values point to notes of the source that are not given here.
# B1: DPP 8: member of the DPP-IV family of prolyl dipeptidases (protein)
# chain: MAAAMETEQLGVEIFETADCEENIESQDRPKLEPFYVERYSWSQLKKLLADTRKYHGYMMAKAPHDFMFVKRNDPDGPHSDRIYYLAMSGENRENTLFYSEIPKTINRAAVLMLSWKPLLDLFQATLDYGMYSREEELLRERKRIGTVGIASYDYHQGSGTFLFQAGSGIYHVKDGGPQGFTQQPLRPNLVETSCPNIRMDPKLCPADPDWIAFIHSNDIWISNIVTREERRLTYVHNELANMEEDARSAGVATFVLQEEFDRYSGYWWCPKAETTPSGGKILRILYEENDESEVEIIHVTSPMLETRRADSFRYPKTGTANPKVTFKMSEIMIDAEGRIIDVIDKELIQPFEILFEGVEYIARAGWTPEGKYAWSILLDRSQTRLQIVLISPELFIPVEDDVMERQRLIESVPDSVTPLIIYEETTDIWINIHDIFHVFPQSHEEEIEFIFASECKTGFRHLYKITSILKESKYKRSSGGLPAPSDFKCPIKEEIAITSGEWEVLGRHGSNIQVDEVRRLVYFEGTKDSPLEHHLYVVSYVNPGEVTRLTDRGYSHSCCISQHCDFFISKYSNQKNPHCVSLYKLSSPEDDPTCKTKEFWATILDSAGPLPDYTPPEIFSFESTTGFTLYGMLYKPHDLQPGKKYPTVLFIYGGPQVQLVNNRFKGVKYFRLNTLASLGYVVVVIDNRGSCHRGLKFEGAFKYKMGQIEIDDQVEGLQYLASRYDFIDLDRVGIHGWSYGGYLSLMALMQRSDIFRVAIAGAPVTLWIFYDTGYTERYMGHPDQNEQGYYLGSVAMQAEKFPSEPNRLLLLHGFLDENVHFAHTSILLSFLVRAGKPYDLQIYPQERHSIRVPESGEHYELHLLHYLQENLGSRIAALKVI
# B2: H750A: DPP-IV mutant, H750 mutated to Ala; mixture of dimer and monomer (protein)
# chain: SRKTYTLTDYLKNTYRLKLYSLRWISDHEYLYKQENNILVFNAEYGNSSVFLENSTFDEFGHSINDYSISPDGQFILLEYNYVKQWRHSYTASYDIYDLNKRQLITEERIPNNTQWVTWSPVGHKLAYVWNNDIYVKIEPNLPSYRITWTGKEDIIYNGITDWVYEEEVFSAYSALWWSPNGTFLAYAQFNDTEVPLIEYSFYSDESLQYPKTVRVPYPKAGAVNPTVKFFVVNTDSLSSVTNATSIQITAPASMLIGDHYLCDVTWATQERISLQWLRRIQNYSVMDICDYDESSGRWNCLVARQHIEMSTTGWVGRFRPSEPHFTLDGNSFYKIISNEEGYRHICYFQIDKKDCTFITKGTWEVIGIEALTSDYLYYISNEYKGMPGGRNLYKIQLSDYTKVTCLSCELNPERCQYYSVSFSKEAKYYQLRCSGPGLPLYTLHSSVNDKGLRVLEDNSALDKMLQNVQMPSKKLDFIILNETKFWYQMILPPHFDKSKKYPLLLDVYAGPCSQKADTVFRLNWATYLASTENIIVASFDGRGSGYQGDKIMHAINRRLGTFEVEDQIEAARQFSKMGFVDNKRIAIWGWSYGGYVTSMVLGSGSGVFKCGIAVAPVSRWEYYDSVYTERYMGLPTPEDNLDHYRNSTVMSRAENFKQVEYLLIHGTADDNVHFQQSAQISKALVDVGVDFQAMWYTDEDHGIASSTAHQAIYTHMSHFIKQCFSLP
# B3: 735A: DPP-IV C-terminal loop mutant, Y735 substituted with Alanine (protein)
# chain: B2 chain with Y697A, A712H
# B4: 734A: DPP-IV C-terminal loop mutant, W734 substituted with Alanine (protein)
# chain: B2 chain with W696A, A712H
# B5: H750A monomer: monomer of H750A DPP-IV separated by gel filtration (protein)
# chain: B2 chain
# B6: 724A: DPP-IV C-terminal loop mutant, V724 substituted with Alanine (protein)
# chain: B2 chain with V686A, A712H
# B7: Y248A: DPP-IV propeller loop mutant, Y248 substituted with Alanine (protein)
# chain: B2 chain with Y210A, A712H
# B8: F713R: DPP-IV mutant, F713 substituted with Arginine (protein)
# chain: B2 chain with F675R, A712H
# B9: 713A: DPP-IV C-terminal loop mutant, F713 substituted with Alanine (protein)
# chain: B2 chain with F675A, A712H
# B10: 730A: DPP-IV C-terminal loop mutant, F730 substituted with Alanine (protein)
# chain: B2 chain with F692A, A712H
# B11: H750A dimer: dimer of H750A DPP-IV separated by gel filtration (protein)
# chain: B2 chain
# B12: H750E: DPP-IV mutant, H750 mutated to Glu; monomer (protein)
# chain: B2 chain with A712E
# How the values were obtained:
# [1] = Analytical ultracentrifugation (AUC): sedimentation velocity and equilibrium; assay type: physicochemical; conditions: for quaternary structure (monomer/dimer) by AUC: PBS buffer where stated; for quaternary structure (subunit composition) by sedimentation velocity: High salt buffer (0.5 M sodium sulfate); for Stokes' radius (Rs): sedimentation velocity experiments
# Procedure: Buffer was changed using an Amicon device and DPP-IV proteins were allowed to equilibrate for at least four hours or longer as indicated in the text at 25° C. after buffer changes. The sedimentation coefficients (S) of the enzyme were estimated by a Beckman-Coulter XL-A analytical ultracentrifuge with an An60Ti rotor as described (25). Sedimentation velocity analysis was performed at 40,000 rpm at 25° C. with standard double sector aluminum centerpieces. The UV absorption of the cells was scanned every 5 min for 4 hours. Sedimentation equilibrium was performed at 20° C. with six-channel open centerpieces and then centrifuged at 12,000 rpm for 12 hours. The data from both sedimentation velocity and sedimentation experiments were analyzed with the SedFit version 8.7 program to obtain molecular weights and sedimentation coefficients (25). Sednterp version 1.07 program is used to obtain solvent density, viscosity, Stokes' radius (Rs) and anhydrous frictional ratio (f/fo).
# DPP-IV [2] = assay: Kinetic constant measurements with chromogenic substrate H-Gly-Pro-pNA; assay type: biochemical, human; conditions: for AUC analysis or catalytic activities in low salt buffer: low salt buffer compared to PBS buffer (data not shown)
# Procedure: To measure the kinetic parameters, the chromogenic substrate H-Gly-Pro-pNA was utilized to initiate the reaction, which was monitored at OD 405 nm as a function of time (21). […] The initial rate was measured with less than 10% substrate depletion for the first 10 to 300 seconds. The steady-state parameters, kcat and Km, were determined from initial velocity measurements at 0.5 to 5 Km of the substrate concentrations. Lineweaver-Burk plots were analyzed using non-linear regression of the Michaelis-Menten equation. Correlation coefficients better than 0.99 were obtained throughout.
# DPP-IV [3] = assay: Dilution experiment (specific activity after two-fold dilutions); assay type: biochemical, human; conditions: 200 nM to 1.6 nM enzyme, 16 hours at 25° C., 10 uM H-Gly-Pro-pNA
# Procedure: Enzyme concentrations ranging from 200 nM to 1.6 nM were used in the dilution experiments. The experiments were carried out with consecutive two-fold dilutions in PBS containing 0.1% BSA and 1 mM DTT (dithiothreitol). The solution after dilution was incubated at 25° C. for 16 hours to ensure attainment of dimer-monomer equilibrium. The reaction was initiated by adding the substrate H-Gly-Pro-pNA at a final concentration of 10 uM for both wild type DPP-IV and H750A proteins. The initial rate of the reaction was recorded and converted to specific activity.
# [4] = Size exclusion chromatography (gel filtration, Superdex 200); assay type: physicochemical; conditions: gel filtration experiments; PBS buffer
# Procedure: Chemical crosslinking in intact cells was conducted as described (24). Size exclusion chromatography was conducted at 4° C. Purified proteins (0.5 ml at a concentration of 5 uM) were applied to a Superdex 200 10/30 column (10×300-310 mm) pre-equilibrated with PBS. The sample was eluted with the same buffer at 0.3 ml/min and 0.25 ml fractions were collected. The Superdex 200 10/30 column was calibrated with the Stokes Radii of ferritin (6.1 nm), catalase (5.22 nm), aldolase (4.81 nm), albumin (3.55 nm), ovalbumin (3.05 nm) and chymotrypsinogen A (2.09 nm) from Amersham-Pharmacia.
# [5] = High salt buffer, substrate H-Gly-Pro-pNA
# [6] = PBS buffer, substrate H-Gly-Pro-pNA
# [7] = compared with wild type rDPP-IV
# [8] = Table III, monomer form of the mutant
# [9] = Table III, dimer form of the mutant
# [10] = values in text, monomeric mutants
molecule,measurement,setting,value
B1,quaternary structure (monomer/dimer) by AUC,[1],is a dimer; also recorded: exists as a dimer
B2,Km,DPP-IV [2]; [5],125 µM
same,kcat,DPP-IV [2]; [5],16 s⁻¹
same,Km,DPP-IV [2]; [6],77 µM
same,kcat,DPP-IV [2]; [6],31 s⁻¹
same,decrease in kcat,DPP-IV [2]; [7],about 3 fold
same,AUC analysis or catalytic activities in low salt buffer,DPP-IV [2],no differences
same,quaternary structure (subunit composition) by sedimentation velocity,[1],mixture of dimer-monomer
same,quaternary structure (monomer/dimer) by AUC,[1],mixture of DPP-IV dimer and monomer
same,subunit composition of separated dimer and monomer after incubation,"[1]; room temperature for up to 48 hours, after gel filtration",maintain their subunit compositions
same,specific activity on dilution,DPP-IV [3],constant
same,Stokes' radius (Rs),[4],5.7 nm and 4.6 nm
B3,Km,DPP-IV [2]; [8],88.6 µM
same,kcat,DPP-IV [2]; [8],0.05 s − 1
same,quaternary structure (monomer/dimer) by AUC,[1],monomers
B4,Km,DPP-IV [2]; [8],90.5 µM
same,kcat,DPP-IV [2]; [8],0.3 s − 1
same,quaternary structure (monomer/dimer) by AUC,[1],monomers
B5,Km,DPP-IV [2]; [6],64 µM
same,kcat,DPP-IV [2]; [6],1.4 s⁻¹
same,decrease in kcat,DPP-IV [2]; [7],60 fold
same,"Sedimentation coefficient (s20, w)",[1]; High salt buffer,3.3 S
same,Anhydrous frictional ratio (f/fo),[1]; PBS buffer,1.3
same,"Sedimentation coefficient (s20, w)",[1]; PBS buffer,5.5 S
same,Stokes' radius (Rs),[1]; High salt buffer,3.7^b nm
same,Stokes' radius (Rs),[1]; PBS buffer,4.1^b nm
same,Stokes' radius (Rs),[4],4.6^a nm
B6,Km,DPP-IV [2]; [9],87.5 µM
same,kcat,DPP-IV [2]; [9],48.3 s − 1
same,Km,DPP-IV [2]; [8],76.4 µM
same,kcat,DPP-IV [2]; [8],0.5 s − 1
same,quaternary structure (monomer/dimer) by AUC,[1],mixture with both monomers and dimers
B7,Km,DPP-IV [2]; [10],7 µM
same,kcat,DPP-IV [2]; [10],0.01 S^−1
same,quaternary structure (monomer/dimer) by AUC,[1],resulted in monomers; also recorded: monomer
B8,Km,DPP-IV [2]; [10],784 µM
same,kcat,DPP-IV [2]; [10],2.3 S^−1
same,quaternary structure (monomer/dimer) by AUC,[1],monomeric DPP-IV; also recorded: monomers
B9,Km,DPP-IV [2]; [8],50.1 µM
same,kcat,DPP-IV [2]; [8],1.8 s − 1
same,Km,DPP-IV [2]; [10],51 µM
same,kcat,DPP-IV [2]; [10],1 S^−1
same,quaternary structure (monomer/dimer) by AUC,[1]; listed as F713A,monomers; also recorded: monomeric DPP-IV
B10,Km,DPP-IV [2]; [9],56.3 µM
same,kcat,DPP-IV [2]; [9],27.9 s − 1
same,Km,DPP-IV [2]; [8],53.7 µM
same,kcat,DPP-IV [2]; [8],0.2 s − 1
same,quaternary structure (monomer/dimer) by AUC,[1],mixture with both monomers and dimers
B11,Km,DPP-IV [2]; [6],79 µM
same,kcat,DPP-IV [2]; [6],73 s⁻¹
same,"Sedimentation coefficient (s20, w)",[1]; High salt buffer,5.0 S
same,Anhydrous frictional ratio (f/fo),[1]; PBS buffer,1.4
same,"Sedimentation coefficient (s20, w)",[1]; PBS buffer,8.5 S and 8.4 S
same,Stokes' radius (Rs),[1]; High salt buffer,4.9^b nm
same,Stokes' radius (Rs),[1]; PBS buffer,5.1^b nm
same,Stokes' radius (Rs),[4],5.7^a nm
B12,Km,DPP-IV [2]; [5],1090 µM
same,kcat,DPP-IV [2]; [5],2.1 s⁻¹
same,Km,DPP-IV [2]; [6],956 µM
same,kcat,DPP-IV [2]; [6],2.6 s⁻¹
same,decrease in kcat,DPP-IV [2]; [7],30 fold
same,increase in Km,DPP-IV [2]; [7],10 fold
same,AUC analysis or catalytic activities in low salt buffer,DPP-IV [2],no differences
same,"Sedimentation coefficient (s20, w)",[1]; High salt buffer,3.3 S
same,quaternary structure (subunit composition) by sedimentation velocity,[1],monomer
same,Anhydrous frictional ratio (f/fo),[1]; PBS buffer,1.3
same,"Sedimentation coefficient (s20, w)",[1]; PBS buffer,5.5 S
same,quaternary structure (monomer/dimer) by AUC,[1],consists only of monomer; also recorded: nearly exclusive monomers
same,Stokes' radius (Rs),[1]; High salt buffer,3.7^b nm
same,Stokes' radius (Rs),[1]; PBS buffer,4.0^b nm
same,Stokes' radius (Rs),[4],4.6 nm and 4.6^a nm
